Ends that are not written are not given here.
T1: synthetic biotinylated peptide mimotope having SEQ ID NO:1 (not fully specified (N-terminus))
T1 construct: chemically synthesized (Genosys); also called biotinylated mimotope peptide
T1 peptide: AWNWRYREYV


Each molecule was assayed on mab C-34 (assay: Neutralization of mab C-34 inhibition of ristocetin-induced aggregation in citrated platelet-rich plasma by mimotope peptide). Details: 0.14 μM peptide, 20 μg/ml mab C-34 (FIG. 3).
Assay type: cell-based, human
Procedure: (§1) Citrated human platelet-rich plasma (PRP) was prepared by standard methods (Miller et al. 1983). For study of C-34 neutralization by mimotope peptide, 350 μL of PRP containing 150,000 platelets/μL was incubated for 10 min at 22° C. with phosphate-buffered saline (PBS), 20 μg/mL C-34 mab, or 20 μg/mL C-34 that had previously been incubated for 30 min at 22° C. with varying concentrations of peptides. The PRP was then brought to 37° C. and stirred at 1200 rpm in a Chrono-Log lumi-aggregometer (Chrono-Log Corporation, Havertown, Pa.). Aggregation was initiated by the addition of 1 mg/mL ristocetin (Helena Laboratories, Beaumont, Tex.). For screening of bacteriophage clones displaying potential anti-mimotope peptides, 150 μl of PEG/NaCl precipitated phage was incubated with 250 μl of citrated PRP for one hour at 22° C., transferred to the aggregometer, following which ristocetin was added at a final concentration of 0.8 mg/ml.
A peptide including the consensus sequence (SEQ ID NO: 38) was chemically synthesized (Genosys Biotechnologies, The Woodlands, Tex.). […] A modification of this peptide with a biotin attached to the amino-terminal alanine (N-hydroxysuccinimide hexanoic acid long chain spacer arm biotinylation) was also synthesized. One mg of the chemically synthesized biotinylated peptide was dissolved in one ml of water containing 20 μl of DMSO. […] Accordingly, approximately 10 μg of C-34 was incubated at 22° C. for 30 minutes with varying concentrations of test or control peptide, following which the mixture was added to PRP in a final volume of approximately 0.5 ml for an additional 10 minutes at 22° C. […] A similar pattern of C-34 antibody neutralization was observed when the non-biotinylated form of the peptide (having SEQ ID NO:38) was used, with half-maximal neutralization at approximately 3.0 μM.

| Molecule | neutralization of C-34 inhibition of ristocetin-induced aggregation |
| --- | --- |
| AWNWRYREYV [SEQ ID NO:1] | continued inhibition |

Same assay, conditions: 0.27 μM peptide, 20 μg/ml mab C-34 (FIG. 4)

| Molecule | neutralization of C-34 inhibition of ristocetin-induced aggregation |
| --- | --- |
| AWNWRYREYV [SEQ ID NO:1] | partial neutralization |

Same assay, conditions: 0.55 μM peptide, 20 μg/ml mab C-34 (FIG. 5)

| Molecule | neutralization of C-34 inhibition of ristocetin-induced aggregation |
| --- | --- |
| AWNWRYREYV [SEQ ID NO:1] | partial neutralization |

Same assay, conditions: 1.1 μM peptide, 20 μg/ml mab C-34 (FIG. 6)

| Molecule | neutralization of C-34 inhibition of ristocetin-induced aggregation |
| --- | --- |
| AWNWRYREYV [SEQ ID NO:1] | partial neutralization |

Same assay, conditions: 2.3 μM peptide, 20 μg/ml mab C-34 (FIG. 7)

| Molecule | neutralization of C-34 inhibition of ristocetin-induced aggregation |
| --- | --- |
| AWNWRYREYV [SEQ ID NO:1] | complete neutralization |

Same assay, conditions: 20 μg/mL C-34, citrated PRP, 1 mg/mL ristocetin; read-out: half-maximal neutralization of the C-34

| Molecule | EC50 |
| --- | --- |
| WNWRYREYV [SEQ ID NO:38] | ~3000 nM |

These molecules were tested on formalin-fixed platelets (assay: not given). Details: not given.
Assay type: cell-based, human
Procedure: as §1
Further studies were undertaken with chemically synthesized peptide having SEQ ID NO:94: […]. This decapeptide was able to inhibit ristocetin-induced aggregation fully, with an IC50 occurring between 200–400 μg/mL (FIG. 9). […] In order to approximate more closely the native structure, peptides with an (Arg→Lys) substitution at position 7 were then studied. […] Whereas the […] Finally, both the wild-type GPIb alpha 228–237 peptide (SEQ ID NO:108) containing Gly at residue 233 and the PT-vWD variant with Val replacing Gly at this position (SEQ ID NO:107) were synthesized. […] Lyophilized peptides were reconstituted in PBS, pH 6.0 and 150 μL of varying dilutions incubated for 2–4 hr at 22° C. with 250 μL of formalin-fixed platelets ([…]), prior to aggregometry in which the addition of 1 U/mL purified vWF was followed by the addition of 0.9 mg/mL ristocetin.

| Molecule | IC50 for inhibition of ristocetin-induced aggregation |
| --- | --- |
| YVWKQVVDVK [SEQ ID NO:107] | approximately 400 μg/mL |

Same assay, conditions: by 715 μg/mL peptide, formalin-fixed platelets

| Molecule | inhibition of ristocetin-induced aggregation |
| --- | --- |
| SEQ ID NO:104: RHVAWWRQGV decapeptide with a (Gly→Val) substitution at position 9, corresponding to the mutation observed in PT-vWD (RHVAWWRQVV) | nearly full inhibition |

Same assay, conditions: formalin-fixed platelets, 1 U/mL purified vWF, 0.9 mg/mL ristocetin

| Molecule | inhibition of ristocetin-induced aggregation (extent, in words) |
| --- | --- |
| RHVAWWKQVV [SEQ ID NO:105] | retained potent inhibitory activity |
| RHVAWWKQGV [SEQ ID NO:106] | unable to exert more than slight inhibition, except at the highest concentrations tested |
| SEQ ID NO:108: wild-type GPIb alpha 228–237 peptide containing Gly at residue 233 (YVWKQGVDVK) | virtually without inhibitory activity |
| YVWKQVVDVK [SEQ ID NO:107] | fully inhibiting |

These molecules were tested against monoclonal antibody C-34 (assay: clone count after phage biopanning on biotinylated C-34). Details: not given.

| Molecule | Frequency |
| --- | --- |
| LSTWRYFEYV [C34 Clone SEQ ID NO:3] | 14 |
| FKWREWRGKL [C34 Clone SEQ ID NO:11] | 1 |
| WRQREYWDPV [C34 Clone SEQ ID NO:6] | 1 |
| KRAWWKQKWV [C34 Clone SEQ ID NO:66] | 1 |
| YLGWRYSEYV [C34 Clone SEQ ID NO:4] | 7 |
| AWNWRYREYV [C34 Clone SEQ ID NO:1] | 52 |
| MSKKPHLGLR [C34 Clone SEQ ID NO:19] | 1 |
| FSHSYGSAIR [C34 Clone SEQ ID NO:17] | 1 |
| TMWVELYSLK [C34 Clone SEQ ID NO:20] | 1 |
| MNWKHWRARH [C34 Clone SEQ ID NO:10] | 1 |
| KKGRHHVTRV [C34 Clone SEQ ID NO:15] | 22 |
| PDRQVRLWVR [C34 Clone SEQ ID NO:12] | 1 |
| EGSWRYRKGG [C34 Clone SEQ ID NO:7] | 1 |
| TQMWRAREYL [C34 Clone SEQ ID NO:5] | 2 |
| MHGHRRPGLA [C34 Clone SEQ ID NO:18] | 1 |
| GRRVWMLNHG [C34 Clone SEQ ID NO:14] | 2 |
| FVDPGRAGRG [C34 Clone SEQ ID NO:21] | 1 |
| GYHWWRNWEY [C34 Clone SEQ ID NO:8] | 2 |
| KWNWRNKKYV [C34 Clone SEQ ID NO:2] | 1 |
| GGVCKCWQCL [C34 Clone SEQ ID NO:16] | 1 |
| RVLRHWHPRT [C34 Clone SEQ ID NO:13] | 1 |
| KGFLWRARNW [C34 Clone SEQ ID NO:9] | 1 |

Target: T1, synthetic biotinylated peptide mimotope …
Assay: phage biopanning on biotinylated mimotope peptide SEQ ID NO:1
Details: not given
Procedure: For studies directed towards discovering a peptide binding the mimotope peptide (SEQ ID NO:1: […]), two rounds of biopanning against the original decapeptide library were performed, using 1 µg of biotinylated mimotope peptide in the first round and 0.01 µg in the second round. Resulting yields were 3 ×10^-6% and 2 ×10^-3%, respectively.

| Molecule | binding result |
| --- | --- |
| WRWMHWMPHA [anti-mimotope clone SEQ ID NO:159] | binds |
| HEGCEAQDEL [anti-mimotope clone SEQ ID NO:167] | binds |
| RWLWPRVHKT [anti-mimotope clone SEQ ID NO:170] | binds |
| HSPFRHVQPR [anti-mimotope clone SEQ ID NO:171] | binds |
| SVRHIWFHVK [anti-mimotope clone SEQ ID NO:168] | binds |
| GTWDLWRKGS [anti-mimotope clone SEQ ID NO:169] | binds |
| LSCRGCRAFV [anti-mimotope clone SEQ ID NO:166] | binds |
| KHFMRHRHGV [anti-mimotope clone SEQ ID NO:96] | binds |
| RHRHRGFQPR [anti-mimotope clone SEQ ID NO:161] | binds |
| RHVAWWRQGV [anti-mimotope clone SEQ ID NO:94] | binds |
| RRSTWHWWHA [anti-mimotope clone SEQ ID NO:98] | binds |
| VAKWRHWNRQ [anti-mimotope clone SEQ ID NO:99] | binds |
| RGWRWHKYWQ [anti-mimotope clone SEQ ID NO:162] | binds |
| AGLNHWWKHK [anti-mimotope clone SEQ ID NO:97] | binds |
| WVRGHHREVR [anti-mimotope clone SEQ ID NO:172] | binds |
| KRHAWMKSRL [anti-mimotope clone SEQ ID NO:163] | binds |
| KKWGQHRQRS [anti-mimotope clone SEQ ID NO:158] | binds |
| WHWLARHRTV [anti-mimotope clone SEQ ID NO:160] | binds |
| KKVWMFSYNE [anti-mimotope clone SEQ ID NO:165] | binds |
| LLLVGGSELT [anti-mimotope clone SEQ ID NO:164] | binds |
| AKHRWWRRPV [anti-mimotope clone SEQ ID NO:95] | binds |

These molecules were tested on platelets (assay: Effect of mimotope peptide by itself on platelet aggregation and on ADP-induced aggregation). Details: non-specific effects.
Assay type: cell-based, human

| Molecule | influence on ADP-induced aggregation |
| --- | --- |
| AWNWRYREYV [SEQ ID NO:1] | no influence |

Same assay, conditions: peptide alone, PRP

| Molecule | induction of platelet aggregation by the peptide by itself |
| --- | --- |
| AWNWRYREYV [SEQ ID NO:1] | did not induce platelet aggregation |
